In experiment [1] the target is BBK32-C (C-terminal region of BBK32, residues 206-354) (B. burgdorferi B31) (UniProt O50835). As to the kind of experiment: SPR; Biacore 3000, 25°C; BBK32 proteins immobilised by amine coupling on a C1 sensor chip; running buffer HBS-T-Ca2+ (20 mM HEPES pH 7.3, 140 mM NaCl, 0.005% Tween 20, 5 mM CaCl2), 10 μl/min; C1 0.2-100 nM, C1r enzyme 0.39-200 nM or 2.0-1000 nM series, 1:1 (Langmuir) kinetic fit; single C1 components at a fixed 50 nM. (In general: Surface plasmon resonance follows binding to a sensor surface in real time, without labels.)

The target in experiment [2] is BBK32-FL (recombinant BBK32, residues 21 to 354) (B. burgdorferi B31) (UniProt O50835). The experiment is described as above.
Experiment [3] concerns the target C1r enzyme (activated human complement C1r protease) (human).
Experiment [4] concerns the target first component of human complement, C1 (C1 complex) (human) (UniProt P02745).

As a reminder, the Kd is the free concentration of one partner at which half of the binding sites on the other are occupied at equilibrium, for simple one-to-one binding. As a reminder, the koff is a measure of how fast the partners let go of each other. Broadly, the kon is a measure of how fast the partners come together.

Take “C1r enzyme (activated human complement C1r protease)”: in experiment [1], the Kd is 32 nM, the off-rate (koff) was 0.00011 s⁻¹ and the kon worked out at 3900 M⁻¹ s⁻¹. In addition, in experiment [2], the Kd was 15 nM, the koff amounted to 0.00022 s⁻¹ and the kon was 19000 M⁻¹ s⁻¹.
The molecule “first component of human complement, C1 (C1 complex) (from UniProt P02745 23-245; P02746 28-253; P02747 29-245)” returned a Kd in experiment [1] of 2.3 nM.

B1: BBK32-FL (recombinant BBK32, residues 21 to 354) (natural protein)
chain: DLFIRYEMKEESPGLFDKGNSILETSEESIKKPMNKKGKGKIARKKGKSKVSRKEPYIHSLKRDSANKSNFLQKNVILEEESLKTELLKEQSETRKEKIQKQQDEYKGMTQGSLNSLSGESGELEEPIESNEIDLTIDSDLRPKSSLQGIAGSNSISYTDEIEEEDYDQYYLDEYDEEDEEEIRLSNRYQSYLEGVKYNVDSAIQTITKIYNTYTLFSTKLTQMYSTRLDNFAKAKAKEEAAKFTKEDLEKNFKTLLNYIQVSVKTAANFVYINDTHAKRKLENIEAEIKTLIAKIKEQSNLYEAYKAIVTSILLMRDSLKEVQGIIDKNGVWY
In experiment [3], B1 registered an IC50 of C1r enzyme activity (cleavage of C1s proenzyme by 50 nM C1r enzyme, SDS-PAGE densitometry) of 670 nM. In experiment [4], the IC50 of classical pathway inhibition, ELISA: C3b detection (immobilised human IgM, 1% human serum) worked out at 34 nM; the IC50 of classical pathway inhibition, ELISA: C4b detection (immobilised human IgM, 1% human serum) amounted to 34 nM; the IC50 of inhibition of CP-mediated hemolysis (CP50, sensitized sheep erythrocytes, 1% normal human serum) was 110 nM.

B2: BBK32-C (C-terminal region of BBK32, residues 206-354) (domain or fragment)
chain: SNRYQSYLEGVKYNVDSAIQTITKIYNTYTLFSTKLTQMYSTRLDNFAKAKAKEEAAKFTKEDLEKNFKTLLNYIQVSVKTAANFVYINDTHAKRKLENIEAEIKTLIAKIKEQSNLYEAYKAIVTSILLMRDSLKEVQGIIDKNGVWY
Turning to B2, in experiment [3], the IC50 of C1r enzyme activity (cleavage of C1s proenzyme by 50 nM C1r enzyme, SDS-PAGE densitometry) came to 540 nM. For the same molecule, in experiment [4], the IC50 of classical pathway inhibition, ELISA: C3b detection (immobilised human IgM, 1% human serum) was 4.7 nM; the IC50 of classical pathway inhibition, ELISA: C4b detection (immobilised human IgM, 1% human serum) was determined as 5.6 nM; the IC50 of inhibition of CP-mediated hemolysis (CP50, sensitized sheep erythrocytes, 1% normal human serum) was 60 nM.

The values are drawn from article PMC4725857.
